Assay results from paper PMC6006506.
No end group written: not given here. OP = not defined here

Target: monoclonal antibody depY (mouse)
Experiment: SPR

Binder | Kd [µM]
LYGLPR-{OP} (reading uncertain; also: printed as LYGLPR-OP) [LYGLPR-OP] | 0.012
PPYRM-{OP} (reading uncertain; also: printed as PPYRM-OP) [PPYRM-OP] | 0.36
